{"source": "patent US20230416330A1", "about": "“Optimized GIP Peptide Analogues” (Antag Therapeutics ApS, priority 2019, published 2023)", "binders": {"B1": {"name": "AT747 (peptide)", "peptide": "EGTFISDYSIAMDKIK(C16 diacid)QQDFVEWLLAEKPSSGAPPPS-OH", "modifications": "N-terminus assumed", "SMILES": "CC[C@H](C)[C@H](NC(=O)[C@H](CO)NC(=O)[C@H](Cc1ccc(O)cc1)NC(=O)[C@H](CC(=O)O)NC(=O)[C@H](CO)NC(=O)[C@@H](NC(=O)[C@H](Cc1ccccc1)NC(=O)[C@@H](NC(=O)CNC(=O)[C@@H](N)CCC(=O)O)[C@@H](C)O)[C@@H](C)CC)C(=O)N[C@@H](C)C(=O)N[C@@H](CCSC)C(=O)N[C@@H](CC(=O)O)C(=O)N[C@@H](CCCCN)C(=O)N[C@H](C(=O)N[C@@H](CCCCNC(=O)CCCCCCCCCCCCCCC(=O)O)C(=O)N[C@@H](CCC(N)=O)C(=O)N[C@@H](CCC(N)=O)C(=O)N[C@@H](CC(=O)O)C(=O)N[C@@H](Cc1ccccc1)C(=O)N[C@H](C(=O)N[C@@H](CCC(=O)O)C(=O)N[C@@H](Cc1c[nH]c2ccccc12)C(=O)N[C@@H](CC(C)C)C(=O)N[C@@H](CC(C)C)C(=O)N[C@@H](C)C(=O)N[C@@H](CCC(=O)O)C(=O)N[C@@H](CCCCN)C(=O)N1CCC[C@H]1C(=O)N[C@@H](CO)C(=O)N[C@@H](CO)C(=O)NCC(=O)N[C@@H](C)C(=O)N1CCC[C@H]1C(=O)N1CCC[C@H]1C(=O)N1CCC[C@H]1C(=O)N[C@@H](CO)C(=O)O)C(C)C)[C@@H](C)CC"}, "B2": {"name": "AT748 (peptide)", "peptide": "EGTFISDYSIAMDAIK(C16 diacid)QQDFVEWLLAQKPSSGAPPPS-OH", "modifications": "N-terminus assumed", "SMILES": "CC[C@H](C)[C@H](NC(=O)[C@H](C)NC(=O)[C@H](CC(=O)O)NC(=O)[C@H](CCSC)NC(=O)[C@H](C)NC(=O)[C@@H](NC(=O)[C@H](CO)NC(=O)[C@H](Cc1ccc(O)cc1)NC(=O)[C@H](CC(=O)O)NC(=O)[C@H](CO)NC(=O)[C@@H](NC(=O)[C@H](Cc1ccccc1)NC(=O)[C@@H](NC(=O)CNC(=O)[C@@H](N)CCC(=O)O)[C@@H](C)O)[C@@H](C)CC)[C@@H](C)CC)C(=O)N[C@@H](CCCCNC(=O)CCCCCCCCCCCCCCC(=O)O)C(=O)N[C@@H](CCC(N)=O)C(=O)N[C@@H](CCC(N)=O)C(=O)N[C@@H](CC(=O)O)C(=O)N[C@@H](Cc1ccccc1)C(=O)N[C@H](C(=O)N[C@@H](CCC(=O)O)C(=O)N[C@@H](Cc1c[nH]c2ccccc12)C(=O)N[C@@H](CC(C)C)C(=O)N[C@@H](CC(C)C)C(=O)N[C@@H](C)C(=O)N[C@@H](CCC(N)=O)C(=O)N[C@@H](CCCCN)C(=O)N1CCC[C@H]1C(=O)N[C@@H](CO)C(=O)N[C@@H](CO)C(=O)NCC(=O)N[C@@H](C)C(=O)N1CCC[C@H]1C(=O)N1CCC[C@H]1C(=O)N1CCC[C@H]1C(=O)N[C@@H](CO)C(=O)O)C(C)C"}, "B3": {"name": "AT749 (peptide)", "peptide": "EGTFISDYSIAMDKIK(C16 diacid)QQDFVEWLLAQK-OH", "modifications": "N-terminus assumed", "SMILES": "CC[C@H](C)[C@H](NC(=O)[C@H](CO)NC(=O)[C@H](Cc1ccc(O)cc1)NC(=O)[C@H](CC(=O)O)NC(=O)[C@H](CO)NC(=O)[C@@H](NC(=O)[C@H](Cc1ccccc1)NC(=O)[C@@H](NC(=O)CNC(=O)[C@@H](N)CCC(=O)O)[C@@H](C)O)[C@@H](C)CC)C(=O)N[C@@H](C)C(=O)N[C@@H](CCSC)C(=O)N[C@@H](CC(=O)O)C(=O)N[C@@H](CCCCN)C(=O)N[C@H](C(=O)N[C@@H](CCCCNC(=O)CCCCCCCCCCCCCCC(=O)O)C(=O)N[C@@H](CCC(N)=O)C(=O)N[C@@H](CCC(N)=O)C(=O)N[C@@H](CC(=O)O)C(=O)N[C@@H](Cc1ccccc1)C(=O)N[C@H](C(=O)N[C@@H](CCC(=O)O)C(=O)N[C@@H](Cc1c[nH]c2ccccc12)C(=O)N[C@@H](CC(C)C)C(=O)N[C@@H](CC(C)C)C(=O)N[C@@H](C)C(=O)N[C@@H](CCC(N)=O)C(=O)N[C@@H](CCCCN)C(=O)O)C(C)C)[C@@H](C)CC"}, "B4": {"name": "AT750 (peptide)", "peptide": "EGTFISDYSIAMDKIK(C20 diacid)QQDFVEWLLAQKPSSGAPPPS-OH", "modifications": "N-terminus assumed", "SMILES": "CC[C@H](C)[C@H](NC(=O)[C@H](CO)NC(=O)[C@H](Cc1ccc(O)cc1)NC(=O)[C@H](CC(=O)O)NC(=O)[C@H](CO)NC(=O)[C@@H](NC(=O)[C@H](Cc1ccccc1)NC(=O)[C@@H](NC(=O)CNC(=O)[C@@H](N)CCC(=O)O)[C@@H](C)O)[C@@H](C)CC)C(=O)N[C@@H](C)C(=O)N[C@@H](CCSC)C(=O)N[C@@H](CC(=O)O)C(=O)N[C@@H](CCCCN)C(=O)N[C@H](C(=O)N[C@@H](CCCCNC(=O)CCCCCCCCCCCCCCCCCCC(=O)O)C(=O)N[C@@H](CCC(N)=O)C(=O)N[C@@H](CCC(N)=O)C(=O)N[C@@H](CC(=O)O)C(=O)N[C@@H](Cc1ccccc1)C(=O)N[C@H](C(=O)N[C@@H](CCC(=O)O)C(=O)N[C@@H](Cc1c[nH]c2ccccc12)C(=O)N[C@@H](CC(C)C)C(=O)N[C@@H](CC(C)C)C(=O)N[C@@H](C)C(=O)N[C@@H](CCC(N)=O)C(=O)N[C@@H](CCCCN)C(=O)N1CCC[C@H]1C(=O)N[C@@H](CO)C(=O)N[C@@H](CO)C(=O)NCC(=O)N[C@@H](C)C(=O)N1CCC[C@H]1C(=O)N1CCC[C@H]1C(=O)N1CCC[C@H]1C(=O)N[C@@H](CO)C(=O)O)C(C)C)[C@@H](C)CC"}, "B5": {"name": "AT751 (peptide)", "peptide": "EGTFISDYSIAMDKIK(Palmitoyl)QQDFVEWLLAQKPSSGAPPPS-OH", "modifications": "N-terminus assumed", "SMILES": "CCCCCCCCCCCCCCCC(=O)NCCCC[C@H](NC(=O)[C@@H](NC(=O)[C@H](CCCCN)NC(=O)[C@H](CC(=O)O)NC(=O)[C@H](CCSC)NC(=O)[C@H](C)NC(=O)[C@@H](NC(=O)[C@H](CO)NC(=O)[C@H](Cc1ccc(O)cc1)NC(=O)[C@H](CC(=O)O)NC(=O)[C@H](CO)NC(=O)[C@@H](NC(=O)[C@H](Cc1ccccc1)NC(=O)[C@@H](NC(=O)CNC(=O)[C@@H](N)CCC(=O)O)[C@@H](C)O)[C@@H](C)CC)[C@@H](C)CC)[C@@H](C)CC)C(=O)N[C@@H](CCC(N)=O)C(=O)N[C@@H](CCC(N)=O)C(=O)N[C@@H](CC(=O)O)C(=O)N[C@@H](Cc1ccccc1)C(=O)N[C@H](C(=O)N[C@@H](CCC(=O)O)C(=O)N[C@@H](Cc1c[nH]c2ccccc12)C(=O)N[C@@H](CC(C)C)C(=O)N[C@@H](CC(C)C)C(=O)N[C@@H](C)C(=O)N[C@@H](CCC(N)=O)C(=O)N[C@@H](CCCCN)C(=O)N1CCC[C@H]1C(=O)N[C@@H](CO)C(=O)N[C@@H](CO)C(=O)NCC(=O)N[C@@H](C)C(=O)N1CCC[C@H]1C(=O)N1CCC[C@H]1C(=O)N1CCC[C@H]1C(=O)N[C@@H](CO)C(=O)O)C(C)C"}, "B6": {"name": "AT752 (peptide)", "peptide": "Suc-GTFISEYSI[Aib]LEKIK([AEEA-AEEA-γGlu-C18 diacid])QQEFVEWLLAQKPSSGAPPPS-OH"}, "B7": {"name": "AT753 (peptide)", "peptide": "Adipoyl-GTFISEYSI[Aib]LEKIK([AEEA-AEEA-γGlu-C18 diacid])QQEFVEWLLAQKPSSGAPPPS-OH", "SMILES": "CC[C@H](C)[C@H](NC(=O)[C@H](CCCCN)NC(=O)[C@H](CCC(=O)O)NC(=O)[C@H](CC(C)C)NC(=O)C(C)(C)NC(=O)[C@@H](NC(=O)[C@H](CO)NC(=O)[C@H](Cc1ccc(O)cc1)NC(=O)[C@H](CCC(=O)O)NC(=O)[C@H](CO)NC(=O)[C@@H](NC(=O)[C@H](Cc1ccccc1)NC(=O)[C@@H](NC(=O)CNC(=O)CCCCC(=O)O)[C@@H](C)O)[C@@H](C)CC)[C@@H](C)CC)C(=O)N[C@@H](CCCCNC(=O)COCCOCCNC(=O)COCCOCCNC(=O)CC[C@H](NC(=O)CCCCCCCCCCCCCCCCC(=O)O)C(=O)O)C(=O)N[C@@H](CCC(N)=O)C(=O)N[C@@H](CCC(N)=O)C(=O)N[C@@H](CCC(=O)O)C(=O)N[C@@H](Cc1ccccc1)C(=O)N[C@H](C(=O)N[C@@H](CCC(=O)O)C(=O)N[C@@H](Cc1c[nH]c2ccccc12)C(=O)N[C@@H](CC(C)C)C(=O)N[C@@H](CC(C)C)C(=O)N[C@@H](C)C(=O)N[C@@H](CCC(N)=O)C(=O)N[C@@H](CCCCN)C(=O)N1CCC[C@H]1C(=O)N[C@@H](CO)C(=O)N[C@@H](CO)C(=O)NCC(=O)N[C@@H](C)C(=O)N1CCC[C@H]1C(=O)N1CCC[C@H]1C(=O)N1CCC[C@H]1C(=O)N[C@@H](CO)C(=O)O)C(C)C"}}, "note": "Starred links: 1 amine or outer side, 2 acyl side, 3 side chain; linkers in the order of their positions; H or OH if unused. Non-standard residues stand in square brackets, D forms with d. Groups on a side chain read outwards from the residue. No end group written: not given here. *: point of attachment. C20 diacid = O=C(O)CCCCCCCCCCCCCCCCCCC(=O)*; C18 diacid = O=C(O)CCCCCCCCCCCCCCCCC(=O)*; C16 diacid = O=C(O)CCCCCCCCCCCCCCC(=O)*; γGlu = O=C(O)[C@H](CCC(=O)[*:2])N[*:1]; Adipoyl = O=C(CCCCC(=O)[*:2])[*:1]; Palmitoyl = CCCCCCCCCCCCCCCC(=O)*; Suc = O=C(CCC(=O)[*:2])[*:1]; AEEA = NCCOCCOCC(=O)O; Aib = CC(C)(N)C(=O)O"}
{"biological_target": "T1, human GIP receptor (human, UniProt P48546 22-466)", "T1 sequence (looked up)": "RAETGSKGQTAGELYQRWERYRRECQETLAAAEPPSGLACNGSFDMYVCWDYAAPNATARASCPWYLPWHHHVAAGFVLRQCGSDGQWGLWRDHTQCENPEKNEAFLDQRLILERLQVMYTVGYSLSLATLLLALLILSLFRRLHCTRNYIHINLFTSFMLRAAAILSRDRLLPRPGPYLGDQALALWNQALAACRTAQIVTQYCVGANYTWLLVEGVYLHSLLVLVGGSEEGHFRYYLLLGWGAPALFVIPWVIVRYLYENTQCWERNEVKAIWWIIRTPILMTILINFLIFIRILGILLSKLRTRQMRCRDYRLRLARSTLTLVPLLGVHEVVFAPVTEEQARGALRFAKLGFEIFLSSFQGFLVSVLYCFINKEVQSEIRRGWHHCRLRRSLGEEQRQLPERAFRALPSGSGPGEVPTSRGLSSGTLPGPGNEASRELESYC", "assay": "cell-based or functional assay", "units": {"nM (Kb, Gaddum assay, cAMP)": "nM"}}
{"binder": "B1", "nM (Kb, Gaddum assay, cAMP)": 14, "pKb (Gaddum assay, cAMP)": 7.9}
{"binder": "B2", "nM (Kb, Gaddum assay, cAMP)": 0.42, "pKb (Gaddum assay, cAMP)": 9.4}
{"binder": "B3", "nM (Kb, Gaddum assay, cAMP)": 2.2, "pKb (Gaddum assay, cAMP)": 8.7}
{"binder": "B4", "nM (Kb, Gaddum assay, cAMP)": 4.1, "pKb (Gaddum assay, cAMP)": 8.4}
{"binder": "B5", "nM (Kb, Gaddum assay, cAMP)": 0.92, "pKb (Gaddum assay, cAMP)": 9}
{"binder": "B6", "nM (Kb, Gaddum assay, cAMP)": 0.52, "pKb (Gaddum assay, cAMP)": 9.3}
{"binder": "B7", "nM (Kb, Gaddum assay, cAMP)": 0.23, "pKb (Gaddum assay, cAMP)": 9.6}
